In US20050079574A1 (Genentech, published 2005):
Positions count from the first letter of the chain named. Names may count otherwise.

B1: VLK scaffold (VHH) (VHH)
VHH: DVQLQESGGGLVQAGGSLRLSCAASGRTGSTYDMGWFRQAPGKERESVAAINWDSARTYYASSVRGRFTISRDNAKKTVYLQMNSLKPEDTAVYTCGAGVLKRRGSSVAIFTRVQSWGQGTQVTVSSAGGMDYKDDDDK
B2: llama anti-HCG monobody variable heavy chain (VHH), wild type (VHH)
VHH: DVQLQESGGGLVQAGGSLRLSCAASGRTGSTYDMGWFRQAPGKERESVAAINWDSARTYYASSVRGRFTISRDNAKKTVYLQMNSLKPEDTAVYTCGAGEGGTWDSWGQGTQVTVSSAGGMDYKDDDDK
notes: also called wild type anti-HCG scaffold; llama a-HCG
B3: RLV scaffold (VHH) (VHH)
VHH: DVQLQESGGGLVQAGGSLRLSCAASGRTGSTYDMGWFRQAPGKERESVAAINWDSARTYYASSVRGRFTISRDNAKKTVYLQMNSLKPEDTAVYTCGAGRLVNGLSGLVSWEMPLAWGQGTQVTVSSAGGMDYKDDDDK
B4: LLR scaffold (VHH) (VHH)
VHH: DVQLQESGGGLVQAGGSLRLSCAASGRTGSTYDMGWFRQAPGKERESVAAINWDSARTYYASSVRGRFTISRDNAKKTVYLQMNSLKPEDTAVYTCGAGLLRRGVNATPNWFGLVGWGQGTQVTVSSAGGMDYKDDDDK
B5: RIG scaffold (VHH) (VHH)
VHH: DVQLQESGGGLVQAGGSLRLSCAASGRTGSTYDMGWFRQAPGKERESVAAINWDSARTYYASSVRGRFTISRDNAKKTVYLQMNSLKPEDTAVYTCGAGRIGRSVFNLRRESWVTWWGQGTQVTVSSAGGMDYKDDDDK
notes: also called RIG-Parent Scaffold; RIG VHH domain
B6: RIG scaffold alanine point mutant V100jA (VHH, name in Kabat numbering)
VHH: B5 VHH with V114A
B7: RIG scaffold alanine point mutant S100A (VHH, name in Kabat numbering)
VHH: B5 VHH with S104A
B8: RIG scaffold with mutation T57E (VHH, name in Kabat numbering)
VHH: B5 VHH with T58E

Assays:
[1] = target: T1, Protein A (UniProt P38507 37-477); assay: BiaCore 3000, Protein A on CM5 chip, steady state fit
T1 construct: also called Protein A (Sigma)
Description: The affinity for Protein A for each of the individual clones was determined using a BiaCore 3000. Protein A was coated onto CM5 chip, as was BSA and VEGF. The latter two proteins were used as negative controls. Binding isotherms were calculated the steady state response differentials for a series of protein concentrations. The equilibrium dissociation constant (Kd) was determined by fitting the resulting curves (KaleidaGraph, Synergy Software) to the following equation: Ra=[…](Rmax−Rmin)/((1+C/Kd)ⁿ) Where “Ra” is the measured response differential, “Rmax” is the maximal response differential, “Rmin” the minimal response differential and “C” is the ligand concentration. Analysis of NNS Library

[2] = target: T1, Protein A; assay: BiaCore, Protein A on CM5 chip
[3] = target: T1, Protein A; assay: Biacore

Binder | Kd [1] [nM] | Kd [2] [nM] | binding result [3]
B1 | 900 |  | 
B2 | 1600 |  | 
B3 | 1800 |  | 
B4 | 3300 |  | 
B5 | 800 | 800 | 
B6 |  | 800 | 
B7 |  | 600 | 
B8 |  |  | no binding
